From patent US20260217793A1 (Chugai, published 2026)

How the values were obtained:
[1] = molecular target: T1, human FcγRIIb extracellular domain with C-terminal His tag (human, UniProt P31994 43-217); experiment: ratio of SPR KDs, FcγRIIaR over FcγRIIb
T1 sequence (looked up): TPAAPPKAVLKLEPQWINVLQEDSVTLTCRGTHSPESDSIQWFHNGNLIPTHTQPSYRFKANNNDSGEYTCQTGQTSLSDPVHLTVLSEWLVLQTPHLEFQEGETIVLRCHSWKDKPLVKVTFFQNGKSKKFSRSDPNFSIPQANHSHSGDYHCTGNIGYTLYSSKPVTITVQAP

[2] = molecular target: T2, human FcγRIIa type R (131Arg) extracellular domain with C-terminal His tag (human, UniProt P12318 34-217); experiment: ratio of SPR KDs, reference IL6R-B3/IL6R-L
T2 sequence (looked up): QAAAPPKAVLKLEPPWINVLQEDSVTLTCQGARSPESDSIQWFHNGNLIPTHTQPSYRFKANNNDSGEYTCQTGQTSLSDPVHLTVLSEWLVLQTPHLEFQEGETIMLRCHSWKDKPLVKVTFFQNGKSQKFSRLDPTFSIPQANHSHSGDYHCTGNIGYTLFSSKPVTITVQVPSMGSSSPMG

[3] = molecular target: T1, human FcγRIIb extracellular domain with …; experiment: ratio of SPR KDs, reference IL6R-B3/IL6R-L
[4] = molecular target: human FcγRIa extracellular domain with C-terminal His tag (human, UniProt P12314 16-292); experiment: SPR
human FcγRIa extracellular domain with C-terminal His tag, sequence (P12314 16-292): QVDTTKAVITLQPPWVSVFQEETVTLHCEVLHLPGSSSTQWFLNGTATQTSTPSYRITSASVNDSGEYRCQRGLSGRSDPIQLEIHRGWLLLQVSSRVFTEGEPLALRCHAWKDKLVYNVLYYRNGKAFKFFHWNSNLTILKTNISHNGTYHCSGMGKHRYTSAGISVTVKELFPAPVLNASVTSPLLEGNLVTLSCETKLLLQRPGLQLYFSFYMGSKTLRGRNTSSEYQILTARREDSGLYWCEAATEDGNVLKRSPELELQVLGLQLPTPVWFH

[5] = molecular target: T3, human FcγRIIa type R (Arg131) extracellular domain with C-terminal His tag (human, UniProt P12318 34-217); experiment: SPR
T3 sequence (looked up): T2 sequence (looked up)

[6] = molecular target: T4, human FcγRIIb extracellular domain with C-terminal His tag (human, UniProt P31994 43-217); experiment: SPR
T4 sequence (looked up): T1 sequence (looked up)

mouse FcγRIIb [7] = molecular target: T5, mouse FcγRIIb (mouse, UniProt P08101 30-210); experiment: SPR
T5 sequence (looked up): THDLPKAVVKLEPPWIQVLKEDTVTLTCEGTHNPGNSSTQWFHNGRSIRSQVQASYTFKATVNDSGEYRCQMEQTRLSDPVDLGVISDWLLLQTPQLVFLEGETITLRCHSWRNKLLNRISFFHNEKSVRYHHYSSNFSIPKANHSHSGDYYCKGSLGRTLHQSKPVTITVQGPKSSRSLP

mouse FcγRIII [8] = molecular target: T6, mouse FcγRIII (mouse, UniProt P08508 31-215); experiment: SPR
T6 sequence (looked up): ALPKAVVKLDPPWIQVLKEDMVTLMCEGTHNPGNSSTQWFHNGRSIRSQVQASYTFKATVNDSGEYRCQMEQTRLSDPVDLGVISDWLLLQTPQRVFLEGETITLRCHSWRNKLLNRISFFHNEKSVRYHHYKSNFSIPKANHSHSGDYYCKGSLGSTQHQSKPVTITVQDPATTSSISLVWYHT

mouse FcγRIIb [9] = molecular target: T5, mouse FcγRIIb; experiment: SPR; remark: listed apart in the source
mouse FcγRIII [10] = molecular target: T6, mouse FcγRIII; experiment: SPR; remark: listed apart in the source
[11] = molecular target: human IgA (recombinant, variable region from an anti-human IL6R antibody) (human); experiment: SPR
human FcγRIIa type R = molecular target: T7, human FcγRIIa type R (human, UniProt P12318 34-217); experiment: ratio of SPR KD values
T7 sequence (looked up): T2 sequence (looked up)

human FcγRIIb = molecular target: T8, human FcγRIIb (human, UniProt P31994 43-217); experiment: ratio of SPR KD values
T8 sequence (looked up): T1 sequence (looked up)

B1: IL6R-BP478/IL6R-L (antibody)
heavy: QVQLQESGPGLVKPSETLSLTCAVSGHSISHDHAWSWVRQPPGEGLEWIGFISYSGITNYNPSLQGRVTISRDNSKNTLYLQMNSLRAEDTAVYYCARSLARTTAMDYWGEGTLVTVSSASTKGPSVFPLAPCSRSTSESTAALGCLVKDYFPEPVTVSWNSGALTSGVHTFPAVLQSSGLYSLSSVVTVPSSSLGTKTYTCNVDHKPSNTKVDKRVESKYGPPCPPCPAPDLLGDDSVFLFPPKPKDTLMISRTPEVTCVVVDVSDEDGEVKFNWYVDGVEVHNAKTKPREEQDNSTYRVVSVLTVLHQDWLNGKEYKCKVSNKALPRPIEKTISKAKGQPREPQVYTLPPSRDELTKNQVSLTCLVKGFYPSDIAVEWESNGQPENNYKTTPPVLDSDGSFFLYSKLTVDKSRWQQGNVFSCSVMHEALHNHYTQESLSLSP
light: not shown
[1]
  KD (IIaR)/KD (IIb): 28
[2]
  KD (IIaR) of parent polypeptide/KD (IIaR) of altered polypeptide: 2
[3]
  KD (IIb) of parent polypeptide/KD (IIb) of altered polypeptide: 161

B2: IL6R-BP500/IL6R-L (antibody, human IgG1, kappa)
heavy: QVQLQESGPGLVKPSETLSLTCAVSGHSISHDHAWSWVRQPPGEGLEWIGFISYSGITNYNPSLQGRVTISRDNSKNTLYLQMNSLRAEDTAVYYCARSLARTTAMDYWGEGTLVTVSSASTKGPSVFPLAPSSKSTSGGTAALGCLVKDYFPEPVTVSWNSGALTSGVHTFPAVLQSSGLYSLSSVVTVPSSSLGTQTYICNVNHKPSNTKVDKKVEPKSCDKTHTCPPCPAPELLGDDSVFLFPPKPKDTLMISRTPEVTCVVIDVAEEDGEVKFNWYVDGVEVHNAKTKPREEQDNSTYRVVSVLTVLHQDWLNGKEYKCKVSNKALPAPIEKTISKAKGQPREPQVYTLPPSRDELTKNQVSLTCLVKGFYPSDIAVEWESNGQPENNYKTTPPVLDSDGSFFLYSKLTVDKSRWQQGNVFSCSVMHEALHNHYTQESLSLSP
light: not shown
[4]
  binding result: binds
[5]
  KD (IIaR) of parent polypeptide/KD (IIaR) of altered polypeptide: 1.5
[6]
  KD (IIb) of parent polypeptide/KD (IIb) of altered polypeptide: 128

B3: VH3/L(WT)-mIgG1-MB367 (antibody)
heavy: QVQLQESGPGLVKPSETLSLTCAVSGHSISHDHAWSWVRQPPGEGLEWIGFISYSGITNYNPSLQGRVTISRDNSKNTLYLQMNSLRAEDTAVYYCARSLARTTAMDYWGEGTLVTVSSAKTTPPSVYPLAPGSAAQTNSMVTLGCLVKGYFPEPVTVTWNSGSLSSGVHTFPAVLQSDLYTLSSSVTVPSSTWPSETVTCNVAHPASSTKVDKKIVPRDCGCKPCICEANEVEDVFIFPPKPKDVLTITLTPKVTCVVVDISKDDPEVQFSWFVDDVEVHTAQTQPREEQFNSTFRSVSELPIMHQDWLNGKEFKCRVNSAAFPAPIEKTISKTKGRPKAPQVYTIPPPKEQMAKDKVSLTCMITDFFPEDITVEWQWNGQPAENYKNTQPIMDTDGSYFVYSKLNVQKSNWEAGNTFTCSVLHEGLHNHHT
light: not shown
Mouse FcγRIIb [7]
  binding ratio compared to mIgG1: 159
Mouse FcγRIII [8]
  binding ratio compared to mIgG1: 6.2
Mouse FcγRIIb [9]
  Kd: 1.32 nM
Mouse FcγRIII [10]
  Kd: 45.4 nM

B4: GA2-IgG1 (antibody, V domains shown)
VH: QVQLVQSGAEVKKPGSSVKVSCKASGGTFSSYAISWVRQAPGQGLEWMGGIIPIFGTANYAQKFQGRVTITADESTSTAYMELSSLRSEDTAVYYCARPRWETAISSDAFDIWGQGTMVTVSS
VL: DIQMTQSPSSLSASVGDRVTITCRASQSISDDLNWYQQKPGKAPKLLIYEASNLQSGVPSRFSGSGSGTDFTLTISSLQPEDFATYYCQQHSSSPLTFGQGTKVEIKR
[11]
  kon: 400000 M⁻¹ s⁻¹

B5: IL6R-BP478/IL6R-L (antibody)
heavy: B1 heavy
light: not shown
Human FcγRIIa type R
  binding relative to IL6R-BP230/IL6R-L: 0.9 fold
Human FcγRIIb
  binding relative to IL6R-BP230/IL6R-L: 1.1 fold
